Test results from the supplement of paper PMC7125110.
± gives the standard error. This sample holds only a part of the variants without activity.

B1: glmS ribozyme (parent)
chain: AUAAAAGCGCCAGAACUACAGAAAUGUAGUUGACGAGGAGGAGGUUUAUCGAAUUUUCGGCGGAUGCCUCCAAA

Variants of: B1
Experiment: self-cleavage kobs at 10000 uM GlcN6P; higher = faster cleavage; RNA array
Conditions: with glucosamine-6-phosphate
Outline: (§1)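 On sequenced MiSeq chips, barcoded ribozyme variants were made in situ by E. coli RNA polymerase and followed at 37 °C through a hybridised Cy3 probe. Glucosamine-6-phosphate was flowed in at 40 μM to 10 mM in HEPES/KCl/Mg(OAc)2 buffer. Exponential fits to normalised per-tile medians gave kobs, and weighted Michaelis–Menten fits gave kcat and KM.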

Variant	self-cleavage kobs at 10000 uM GlcN6P
A6C C16U G29C C58A	< 1e-05 s⁻¹
C10G C11A G38C G43U G51C U56C G60C	< 1e-05 s⁻¹
U2G U47C	0.00421 ± 0.0012 s⁻¹
C8U C10U G13C C50G G51U A52C C71A	< 1e-05 s⁻¹
G7U A15U C50G A53U U55G G62U	7.67e-05 ± 2.5e-05 s⁻¹
C10U G43A C71U	< 1e-05 s⁻¹
C11U U45A	0.002 ± 0.00051 s⁻¹
G9A C34A A64G C70G	< 1e-05 s⁻¹
C8A C16U U31C G37U A39U A42U A48U	< 1e-05 s⁻¹
C11A A42U G51U G60C	< 1e-05 s⁻¹
C8U G13U A15U C50U	< 1e-05 s⁻¹
G7U C8G C16A	< 1e-05 s⁻¹
C11U G32A A42G A53U	9.31e-05 ± 2.5e-05 s⁻¹
C10U U31C U57G	< 1e-05 s⁻¹
A6G C10A U30C U49A	< 1e-05 s⁻¹
G7C G41A C61U	< 1e-05 s⁻¹
G7A U30A A39C A48C	< 1e-05 s⁻¹
C8A G35U G44U A52G	< 1e-05 s⁻¹
C8U A14U A36U	< 1e-05 s⁻¹
A6C G7C G35A C68G	< 1e-05 s⁻¹
G9C C34U	< 1e-05 s⁻¹
A6C U31C U45A U57G	< 1e-05 s⁻¹
C11G A33G G40U C70U	< 1e-05 s⁻¹
C10A A12G A52G C70A	6.91e-05 ± 1.7e-05 s⁻¹
C11U U31G U54A	0.0029 ± 0.0008 s⁻¹
C8G A14C C68G	< 1e-05 s⁻¹

Variant	self-cleavage kobs at 10000 uM GlcN6P
A6U A53C	5.75e-05 ± 9.2e-06 s⁻¹
A6C U31A G44A U65A	< 1e-05 s⁻¹
A6G C16A G37C U69C	< 1e-05 s⁻¹
A6G C16G C50G	5.57e-05 ± 2.1e-05 s⁻¹
A6C G9C C50A C58A A64U C70G	< 1e-05 s⁻¹
C10A C11A G44A	< 1e-05 s⁻¹
A6U C50G A53C C71A	4.1e-05 ± 2e-05 s⁻¹
C8U G40U C61U C67U	< 1e-05 s⁻¹
A12C G38U A52U C58A U65A C67U	< 1e-05 s⁻¹
U55C G59U	2.55e-05 ± 1.2e-05 s⁻¹
A6G G9U G35U G38A G40A	< 1e-05 s⁻¹
C11A A42G C67U	4.66e-05 ± 1.8e-05 s⁻¹
C11U G29A A39C	3.89e-05 ± 1.6e-05 s⁻¹
C8U A42U C50U	< 1e-05 s⁻¹
C11U A12G U45G C67A	5.25e-05 ± 1.6e-05 s⁻¹
C11U G38U U45A A48U C71G	< 1e-05 s⁻¹
C10U A39G A42U U49A A53C U69G	< 1e-05 s⁻¹
C8A C11G U49C C67G	< 1e-05 s⁻¹
G41A C70A	0.00019 ± 2.6e-05 s⁻¹
G7A C71U	3.82e-05 ± 1e-05 s⁻¹
C10U U30A C68U	< 1e-05 s⁻¹
A4U A39G C70A	0.000171 ± 4.7e-05 s⁻¹
C10U G37A G44A C70U	< 1e-05 s⁻¹
C10U A36C U69G	0.000116 ± 2.9e-05 s⁻¹
G9C G38C G43U	< 1e-05 s⁻¹

Variants of: B1
Experiment: self-cleavage kobs at 2500 uM GlcN6P; higher = faster cleavage; RNA array
Conditions: with glucosamine-6-phosphate
Outline: as §1

Variant	self-cleavage kobs at 2500 uM GlcN6P
U46G A48U C61A	< 1e-05 s⁻¹
U54G C61U C70U	5.89e-05 ± 1.4e-05 s⁻¹
U46G C61U A64G	< 1e-05 s⁻¹
A42U A48G C61A	< 1e-05 s⁻¹
U46C G60U C70U	< 1e-05 s⁻¹
U46A A53U C68U	0.000125 ± 6.3e-05 s⁻¹
A42G C50G G63U	< 1e-05 s⁻¹
U45G A48U U55C	8.04e-05 ± 2.8e-05 s⁻¹
U47C U56A A64G	0.000616 ± 0.00019 s⁻¹
G44U U49C C61A	< 1e-05 s⁻¹
U45G A52U G63C	< 1e-05 s⁻¹
A48C C50G A64C	< 1e-05 s⁻¹
G41C G44U U54A C68A C71A	< 1e-05 s⁻¹
A52U C61G C67U	8.45e-05 ± 3e-05 s⁻¹
C58U C61G G66U	6.41e-05 ± 2.3e-05 s⁻¹
A64C C67G C68A	6.52e-05 ± 1.8e-05 s⁻¹
G41U C58A A64G U69A	< 1e-05 s⁻¹
G59U G66C	< 1e-05 s⁻¹

Variant	self-cleavage kobs at 2500 uM GlcN6P
A52U U56A C58G	< 1e-05 s⁻¹
G44A U49A G62U	< 1e-05 s⁻¹
A48C C61U G66A	< 1e-05 s⁻¹
U49C C50U U56G	< 1e-05 s⁻¹
A42U C58U U65G	< 1e-05 s⁻¹
C61U U65A C67U C70A	5.06e-05 ± 2.1e-05 s⁻¹
U55A U56A A64G	0.0035 ± 0.00087 s⁻¹
U47G A48U U65G	0.000213 ± 5.9e-05 s⁻¹
U55C G59U	3.25e-05 ± 1.3e-05 s⁻¹
A42U G43A G60U	< 1e-05 s⁻¹
U45A A52U C67A	8.33e-05 ± 2.5e-05 s⁻¹
G43U A48C C61G	< 1e-05 s⁻¹
G41A C70A	0.000253 ± 5.4e-05 s⁻¹
G43U U49G C61G	< 1e-05 s⁻¹
G40U G44A U55C C67U	< 1e-05 s⁻¹
G41C A42U G60C G62C	< 1e-05 s⁻¹
A52U U54A C67U	0.000187 ± 5.3e-05 s⁻¹
